Changes are numbered by the printed parent chain.
What was measured:
[1] = test system: T1, MBP-MogR (Bacillus thuringiensis 407), ORF:ee0ae10c; assay: EMSA
T1 sequence: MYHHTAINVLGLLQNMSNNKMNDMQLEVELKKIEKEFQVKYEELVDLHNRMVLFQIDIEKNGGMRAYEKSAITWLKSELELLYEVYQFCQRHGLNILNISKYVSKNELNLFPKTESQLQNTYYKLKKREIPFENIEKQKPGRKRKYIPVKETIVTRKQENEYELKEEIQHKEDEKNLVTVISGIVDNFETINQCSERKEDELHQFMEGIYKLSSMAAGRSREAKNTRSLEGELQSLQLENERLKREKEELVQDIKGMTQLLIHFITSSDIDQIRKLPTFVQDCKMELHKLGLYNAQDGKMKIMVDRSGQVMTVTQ

[2] = test system: T2, MBP-MogRQN→AA Q119A;N120A (Bacillus thuringiensis 407), ORF:ee0ae10c; assay: EMSA
T2 sequence: T1 sequence with Q119A, N120A

Sequence	binding [1]	binding [2]
TTACAGAAATGAAATTTACGGATAACTATATTTATATAATTTTTTCGGTTCATATTTTTATTTAACAGTAAATTATCGATCGTAATCGACAAAATTTTTCTATTTACGCATTAAAAATTTAATGTTTTAATGAACAACATAACTGGTATGACCAGACAGAAAGGATAAGG (double strand) [hbl promoter fragment]	binds	–
CAACTATCATAATATCACCTTTTCGGTAAACAAAGATAATCTAATATTAGAGTTTTTTTTTAAAGTTTGCAATAATCCTTTTAATAATTATGTAATAAAAAATGAATATATTGTTAAACTGTTATTTTTTTATATTTATTAATTCGAATTTTTAGTTGACACCCG (double strand) [fla promoter fragment]	binds	no binding

Source: publication PMC7793685
